Test results published in patent publication US20230248844A1, “C[…] ADC OR AN AOC COMPRISING A VHH, AND A SAPONIN OR A LIGAND-SAPONIN CONJUGATE” (SAPREME TECHNOLOGIES B.V., priority 2020, published 2023).

Target: EGFR (human) (UniProt P00533)
Assay: cell-based or functional assay

Substance cetuximab-saporin (antibody) has a cell killing (MTS) IC50, titrated alone, MDA-MB-468 cells (EGFR++) of 0.3 nM.
